Kd data for one substance are collected here from PMC11481066.

The target in the assay is SARS-CoV-2 spike protein receptor binding domain, Delta variant subvariant Δ1 (B.1.617.2) (UniProt P0DTC2). Kind of assay: BLI. The conditions noted are these: parent: 168.4.

One may read the Kd as the constant that tells how readily two partners part at equilibrium.

For ab8 nanobody, wild type E127W, the Kd is 0.59 nM.
